Target: 30/30 nucleosomes labeled with Cy3 on H4 A15C, P62799
Assay: other fluorescence titration

B1: SNF2h ΔHSS (domain or fragment)
chain: MSSAAEPPPPPPPESAPSKPAASIASGGSNSSNKGGPEGVAAQAVASAASAGPADAEMEEIFDDASPGKQKEIQEPDPTYEEKMQTDRANRFEYLLKQTELFAHFIQPAAQKTPTSPLKMKPGRPRIKKDEKQNLLSVGDYRHRRTEQEEDEELLTESSKATNVCTRFEDSPSYVKWGKLRDYQVRGLNWLISLYENGINGILADEMGLGKTLQTISLLGYMKHYRNIPGPHMVLVPKSTLHNWMSEFKRWVPTLRSVCLIGDKEQRAAFVRDVLLPGEWDVCVTSYEMLIKEKSVFKKFNWRYLVIDEAHRIKNEKSKLSEIVREFKTTNRLLLTGTPLQNNLHELWSLLNFLLPDVFNSADDFDSWFDTNNCLGDQKLVERLHMVLRPFLLRRIKADVEKSLPPKKEVKIYVGLSKMQREWYTRILMKDIDILNSAGKMDKMRLLNILMQLRKCCNHPYLFDGAEPGPPYTTDMHLVTNSGKMVVLDKLLPKLKEQGSRVLIFSQMTRVLDILEDYCMWRNYEYCRLDGQTPHDERQDSINAYNEPNSTKFVFMLSTRAGGLGINLATADVVILYDSDWNPQVDLQAMDRAHRIGQTKTVRVFRFITDNTVEERIVERAEMKLRLDSIVIQQGRLVDQNLNKIGKDEMLQMIRHGATHVFASKESEITDEDIDGILERGAKKTAEMNEKLSKMGESSLRNFTMDTESSVYNFEGEDYREKQKIAFTE
modifications: not checked
fold decrease in affinity against wild type SNF2h: 56 fold | fold decrease in binding against wild type SNF2h: 22 fold

Source: paper PMC4355161
